The conditions of the data set: Kitasatospora aureofaciens, Thermal, CD, whole UniProt chain shown.

We go through one protein from FireProtDB (doi:10.1016/j.jmb.2005.09.091).

B1: Guanyl-specific ribonuclease Sa wild type, P05798 (protein)
chain: DVSGTVCLSALPPEATDTLNLIASDGPFPYSQDGVVFQNRESVLPTQSYGYYHEYTVITPGARTRGTRRIITGEATQEDYYTGDHYATFSLIDQTC
As a reminder, the Tm is the temperature at the midpoint of the melting transition. As for B1, the Tm runs as follows: (pH 3, Glycine 30 mM) 39.9 °C; (pH 7, Mops 30 mM) 47.8 °C; (pH 8.5, Mops 30 mM) 38.7 °C. The “unfolding enthalpy (van 't Hoff)” value is, setting by setting: (pH 3, Glycine 30 mM) 81 kcal/mol; (pH 7, Mops 30 mM) 91 kcal/mol; (pH 8.5, Mops 30 mM) 84 kcal/mol.
